The supplement of paper PMC7125110
± gives the standard error. For some of these results: This sample holds only a part of the variants without activity.

B1: glmS ribozyme (parent)
chain: AUAAAAGCGCCAGAACUACAGAAAUGUAGUUGACGAGGAGGAGGUUUAUCGAAUUUUCGGCGGAUGCCUCCAAA

Legend:
Settings in all cases: with glucosamine-6-phosphate
glucosamine-6-phosphate [1] = variants of: B1; experiment: kcat; higher = faster cleavage; RNA array
How it was run: (§1)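 Glucosamine-6-phosphate in HEPES/KCl/Mg(OAc)2 buffer, at 40 μM to 10 mM, was flowed over barcoded ribozyme variants transcribed in situ by E. coli RNA polymerase on sequenced MiSeq chips. Tracking was through a hybridised Cy3 probe at 37 °C. kobs, kcat and KM came from exponential decay fits and weighted Michaelis–Menten fits of normalised per-tile medians.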

glucosamine-6-phosphate [2] = variants of: B1; experiment: self-cleavage kobs at 2500 uM GlcN6P; higher = faster cleavage; RNA array
How it was run: as §1

glucosamine-6-phosphate [3] = variants of: B1; experiment: self-cleavage kobs at 10000 uM GlcN6P; higher = faster cleavage; RNA array
How it was run: as §1

glucosamine-6-phosphate [4] = variants of: B1; experiment: self-cleavage kobs at 640 uM GlcN6P; higher = faster cleavage; RNA array
How it was run: as §1

glucosamine-6-phosphate [5] = variants of: B1; experiment: self-cleavage kobs at 160 uM GlcN6P; higher = faster cleavage; RNA array
How it was run: as §1

glucosamine-6-phosphate [6] = variants of: B1; experiment: self-cleavage kobs at 40 uM GlcN6P; higher = faster cleavage; RNA array
How it was run: as §1

glucosamine-6-phosphate [7] = variants of: B1; experiment: KM; higher = weaker cofactor use; RNA array
How it was run: as §1

Variant	kcat (glucosamine-6-phosphate [1]) [s⁻¹]	self-cleavage kobs at 2500 uM GlcN6P (glucosamine-6-phosphate [2]) [s⁻¹]	self-cleavage kobs at 10000 uM GlcN6P (glucosamine-6-phosphate [3]) [s⁻¹]	self-cleavage kobs at 640 uM GlcN6P (glucosamine-6-phosphate [4]) [s⁻¹]	self-cleavage kobs at 160 uM GlcN6P (glucosamine-6-phosphate [5]) [s⁻¹]	self-cleavage kobs at 40 uM GlcN6P (glucosamine-6-phosphate [6]) [s⁻¹]	KM (glucosamine-6-phosphate [7]) [µM]
A6U G41U	4.92e-05 ± 3.2e-06						
A36C G59A	< 1e-05	< 1e-05	< 1e-05				
A6U U65A	< 1e-05						
C11A U69C	6.61e-05 ± 1e-05	7.67e-05 ± 1.5e-05	4.97e-05 ± 1.6e-05	7.71e-05 ± 3.5e-05			
G40U A42U	0.000115 ± 2e-05	0.000109 ± 1.3e-05	9.45e-05 ± 1.4e-05	4.15e-05 ± 9.6e-06	2.53e-05 ± 1.2e-05		
C16G U55C	0.00146 ± 0.00056	0.000702 ± 0.00013	0.00213 ± 0.00033	0.000574 ± 8.2e-05	0.000158 ± 7.7e-05	4.65e-05 ± 1.3e-05	
C50A C67A	2.1e-05 ± 4.7e-06						
C16U A48G	7.95e-05 ± 1.2e-05	6.63e-05 ± 1.1e-05	6.95e-05 ± 8.6e-06				
U55C G62C	1.58e-05 ± 2.1e-06						1220 ± 460
G62C U69G	1.62e-05 ± 2.9e-06						
C11U A15C	0.000738 ± 0.00012	0.000368 ± 6.1e-05	0.000585 ± 4.9e-05	0.000194 ± 2.9e-05	2.57e-05 ± 1.1e-05		2490 ± 850
G38A C71U	< 1e-05						
G38U	< 1e-05						
A48C A53C	9.8e-05 ± 1.5e-05	3.99e-05 ± 1.2e-05	6.89e-05 ± 1.7e-05				4010 ± 1400
A39C U46C	0.00261 ± 0.00017	0.00122 ± 0.00023	0.00206 ± 0.00025	0.000488 ± 6.6e-05	0.000168 ± 3.9e-05	3.41e-05 ± 9.8e-06	2740 ± 280
G32C G43U	< 1e-05		< 1e-05	< 1e-05	< 1e-05	< 1e-05	
A39C A53G	0.00638 ± 0.001	0.00372 ± 0.00061	0.00541 ± 0.0007	0.00157 ± 0.00027	0.000404 ± 6.3e-05	0.000151 ± 1.5e-05	1890 ± 400
A6U A39U	0.000104 ± 2.7e-06	5.5e-05 ± 7.8e-06	8.67e-05 ± 1.1e-05	2.53e-05 ± 8.4e-06			2160 ± 150
C16U C61G C67A	2.72e-05 ± 6.4e-06						
A53G G59A	0.000102 ± 1.3e-05	3.91e-05 ± 1.5e-05	7e-05 ± 1.9e-05				4360 ± 1300
A48G C68G	5.98e-05 ± 7.3e-06	5.41e-05 ± 1.2e-05	5.84e-05 ± 8.1e-06	7.32e-05 ± 1.6e-05		4.65e-05 ± 1.2e-05	
